Square brackets hold non-standard residues; d marks the D form. Ends that are not written are not given here. pT = C[C@@H](OP(=O)(O)O)[C@H](N)C(=O)O; pS = N[C@@H](COP(=O)(O)O)C(=O)O

Broadly, the Kd is the constant that tells how readily two partners part at equilibrium. Low values mean a tighter complex, high ones a looser complex. A word on the stoichiometry N: it is a count of units in the complex or per binding partner.

For assay [1], the system named is U2OS Flp-In T-REx cells. Briefly: Colony formation assay: CPT sensitivity. The format is cell-based, human. The method, then:
For transient protein expression, cells were transfected with Lipofectamine 2000 (Invitrogen) and the plasmid of interest and incubated for 48 h unless otherwise stated. For BRCA2 knockdown, cells were transfected twice with 10 nM Silencer Select BRCA2 s2084 siRNA and 10 nM Silencer Select BRCA2 s2085 siRNA (Ambion) using Lipofectamine RNAiMAX (Invitrogen) 24 and 48 h before the experiment. A luciferase oligo ([NT], Sigma) was used for control (Ctrl). U2OS Flp-In T-REx parental cells or stably expressing siRNA-resistant venus-MBP-BRCA2 constructs were transfected with Ctrl or BRCA2 siRNA as described above. […] Reseeding was performed by trypsinizing the cells, dissolving into growth medium, and counting the number of cells using the Scepter Cell Counter (Merck), followed by seeding a known number of cells into six-well plates containing growth medium. After 11 days, the cells were fixed and stained in 0.5% methylviolet, 25% methanol. The plates were scanned on a GelCount (Oxford Optronix), and the number of colonies were quantified using the GelCount software (version 1.3.04). The plating efficiency (%) for each well was calculated as the number of colonies divided by the number of cells seeded times 100. The surviving fraction for each dose of drug was calculated by normalizing the plating efficiency to that of the unperturbed condition. […]

For assay [2], the system named is BRCA2 pT1104/pS1106 and pT1128. Briefly: Western blot of BRCA2 phosphorylation in BRCA2 immunoprecipitates. The format is cell-based, human. To be noted: U2OS Flp-In T-REx, S-phase, released 1 h, 2 μM CPT for 1 h. The method, then: For immunoprecipitations of endogenous BRCA2, U2OS Flp-In T-REx cells were synchronized to S-phase as described above, released for 1 h, and treated for 1 h with 2 μM CPT in presence or absence of 25 μM KU55933 (ATM kinase inhibitor) and 5 μM AZ20 (ATR kinase inhibitor). Cells were lysed in RIPA buffer, and proteins were immunoprecipitated on BRCA2 antibody-conjugated (Millipore Cat# OP95, RRID:AB_2067762) Rec-protein G Sepharose 4B beads (Invitrogen) for 1 h at 4 °C and washed in RIPA buffer prior to elution.
All buffers were supplemented with 1 mM DTT, Complete protease inhibitor cocktail (Roche), and PhosSTOP phosphatase inhibitor cocktail (Roche). For λ phosphatase treatment experiments, immunoprecipitants on beads were washed in buffer without phosphatase inhibitor and incubated with λ phosphatase (Sigma–Aldrich) in the applied buffer for 20 min at 30 °C before elution. Immunoprecipitants were eluted in 2× NuPage LDS sample buffer (Invitrogen). Whole-cell extracts and immunoprecipitations were analyzed by SDS-PAGE and western blotting or mass spectrometry analysis. For western blotting, samples were boiled for 5 min in NuPage LDS sample buffer and run on NuPage Bis-Tris 4–12% protein gels (Invitrogen), and proteins were transferred to PVDF membranes (Immobilon-FL, Merck). […] Quantification of western blots were carried out in ImageStudioLite (version 5.2.5., LI-COR). […]
For orientation: Immunoblotting shows a protein as a band on a membrane.

In assay [3] the test system is U2OS Flp-In T-REx cells. Briefly: Colony formation assay: MMC sensitivity. The format is cell-based, human.
Description: For transient protein expression, cells were transfected with Lipofectamine 2000 (Invitrogen) and the plasmid of interest and incubated for 48 h unless otherwise stated. For BRCA2 knockdown, cells were transfected twice with 10 nM Silencer Select BRCA2 s2084 siRNA and 10 nM Silencer Select BRCA2 s2085 siRNA (Ambion) using Lipofectamine RNAiMAX (Invitrogen) 24 and 48 h before the experiment. A luciferase oligo (5′-[sequence]dTdT-3′, Sigma) was used for control (Ctrl).
U2OS Flp-In T-REx parental cells or stably expressing siRNA-resistant venus-MBP-BRCA2 constructs were transfected with Ctrl or BRCA2 siRNA as described above. Then, cells were either treated with 0, 3, or 10 ng/mL Mitomycin C for 24 h followed by reseeding into normal growth medium or reseeded directly and either treated for 24 h with 0, 5, or 15 nM CPT or continuously maintained in medium containing 0, 5.6, 16.7, or 50 nM Olaparib. […] The plates were scanned on a GelCount (Oxford Optronix), and the number of colonies were quantified using the GelCount software (version 1.3.04). The plating efficiency (%) for each well was calculated as the number of colonies divided by the number of cells seeded times 100. The surviving fraction for each dose of drug was calculated by normalizing the plating efficiency to that of the unperturbed condition. […]
The target in assay [4] is T1, B56α (Homo sapiens, UniProt Q15172). Description: isothermal titration calorimetry. As to conditions: reference: unphosphorylated peptide. (Isothermal titration calorimetry measures the heat released or taken up as one component is titrated into another.)
For assay [5], the system named is U2OS Flp-In T-REx cells. Description: Colony formation assay: Olaparib sensitivity. The format is cell-based, human. Here is the method: For transient protein expression, cells were transfected with Lipofectamine 2000 (Invitrogen) and the plasmid of interest and incubated for 48 h unless otherwise stated. For BRCA2 knockdown, cells were transfected twice with 10 nM Silencer Select BRCA2 s2084 siRNA and 10 nM Silencer Select BRCA2 s2085 siRNA (Ambion) using Lipofectamine RNAiMAX (Invitrogen) 24 and 48 h before the experiment. A luciferase oligo ([NT], Sigma) was used for control (Ctrl). U2OS Flp-In T-REx parental cells or stably expressing siRNA-resistant venus-MBP-BRCA2 constructs were transfected with Ctrl or BRCA2 siRNA as described above. […] Reseeding was performed by trypsinizing the cells, dissolving into growth medium, and counting the number of cells using the Scepter Cell Counter (Merck), followed by seeding a known number of cells into six-well plates containing growth medium. After 11 days, the cells were fixed and stained in 0.5% methylviolet, 25% methanol. The plates were scanned on a GelCount (Oxford Optronix), and the number of colonies were quantified using the GelCount software (version 1.3.04). The plating efficiency (%) for each well was calculated as the number of colonies divided by the number of cells seeded times 100. The surviving fraction for each dose of drug was calculated by normalizing the plating efficiency to that of the unperturbed condition. The plating efficiency data of Figs. 2, 3, and Supplementary Fig. 3 is derived from the unperturbed condition of the MMC sensitivity dataset, and the plating efficiency data of Fig. 4 is derived from the unperturbed condition of the Olaparib sensitivity dataset. Graphs were constructed in PRISM, and one-way ANOVA analyses with Dunnett's multiple comparison tests were performed comparing the mean of each condition to the siBRCA2 + WT condition. Exact p values are provided in the source data.

For assay [6], the target named is T1, B56α. Briefly: Isothermal titration calorimetry (ITC) of BRCA2 peptides binding to B56α. On the set-up: His; made in house; host or cells: E. coli BL21 Rosetta2 (DE3) R3 T1. As to conditions: ITC at 25 °C; 50 mM sodium phosphate pH 7.5, 150 mM NaCl, 0.5 mM TCEP; peptide titrated into B56α; single-site model; error = standard error of the fitting; performed once.
Description: Both recombinant B56α and synthetic BRCA2 peptides were extensively dialyzed prior to ITC experiments against the ITC buffer (50 mM sodium phosphate pH 7.5, 150 mM NaCl, 0.5 mM TCEP). All experiments were performed on a MicroCal Auto-iTC200 (Malvern Panalytical) instrument at 25 °C (Auto-iTC200 version 1.1.1.0, iTC200 version 1.26.4, Origin version 7.0552 SR4). Both peptide and B56α concentrations were determined using a spectrophotometer by measuring the absorbance at 280 nm and applying values for the extinction coefficients as computed from the corresponding sequences by the ProtParam program (http://web.expasy.org/protparam/). The BRCA2 peptides were loaded into the syringe and titrated into the calorimetric cell containing B56α. The reference cell was filled with distilled water. Control experiments with the peptides injected in the sample cell filled with buffer were carried out under the same experimental conditions. […] The titration sequence consisted of a single 0.4 μl injection followed by 19 injections, 2 μl each, with 150 s spacing between injections to ensure that the thermal power returns to the baseline before the next injection. The stirring speed was 750 rpm. […] Data were analysed with MicroCal PEAQ-ITC analysis software (version 1.1.0.1262., Malvern Panalytical).

The next assay addresses T2, His-tagged B56α (UniProt Q15172 1-486).
T2 construct: source: E. coli BL21 Rosetta2 (DE3) R3 T1, purified (Ni column, Superdex 200)
Briefly: ITC; BRCA2 peptide in the syringe titrated into B56α in the cell; 25 °C; 50 mM sodium phosphate pH 7.5, 150 mM NaCl, 0.5 mM TCEP; single-site model. To be noted: both partners purified.

Where [7] appears, read: BRCA2 depletion (siBRCA2) vs siCtrl.
[8] abbreviates: cells expressing BRCA2 3AQ compared to BRCA2 WT.

T2 sequence (Q15172 whole entry): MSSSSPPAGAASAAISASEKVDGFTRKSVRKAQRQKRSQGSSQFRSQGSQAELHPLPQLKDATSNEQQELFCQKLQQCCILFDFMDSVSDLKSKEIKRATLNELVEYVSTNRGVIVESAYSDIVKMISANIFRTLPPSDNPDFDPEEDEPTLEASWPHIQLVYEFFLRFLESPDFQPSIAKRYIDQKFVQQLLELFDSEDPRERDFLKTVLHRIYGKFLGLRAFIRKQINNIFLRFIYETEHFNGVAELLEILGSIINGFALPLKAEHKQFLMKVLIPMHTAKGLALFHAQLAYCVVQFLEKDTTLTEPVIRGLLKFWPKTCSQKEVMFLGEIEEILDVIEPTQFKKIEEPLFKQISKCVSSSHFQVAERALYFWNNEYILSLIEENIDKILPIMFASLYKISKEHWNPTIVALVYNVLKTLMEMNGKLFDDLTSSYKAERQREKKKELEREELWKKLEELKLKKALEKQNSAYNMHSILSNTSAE
T1 sequence (Q15172 whole entry): as above

Regarding `CC[C@@]1(O)C(=O)OCc2c1cc1n(c2=O)Cc2cc3ccccc3nc2-1` [Camptothecin, camptothecin], the CPT sensitivity entry with U2OS Flp-In T-REx cells [1] (setting [7]) and in the assay with U2OS Flp-In T-REx cells [1] (setting [8]) was “hypersensitivity” throughout. Further, the “phosphorylation of BRCA2 T1104/S1106 and T1128” value in assay [2] is “stimulated”. Take `CO[C@@]12[C@H](COC(N)=O)C3=C(C(=O)C(C)=C(N)C3=O)N1C[C@@H]1N[C@@H]12` [MMC, Mitomycin C]: the MMC sensitivity entry in the assay on U2OS Flp-In T-REx cells [3] (setting [7]) and with U2OS Flp-In T-REx cells [3] (cells expressing BRCA2 3AQ or 3DQ compared to BRCA2 WT) was “hypersensitivity” throughout. “BRCA2 (from UniProt P51587) pS1123 peptide”: the fold change result with B56α [4] (sites S1123) is “stronger”. With “BRCA2 (from UniProt P51587) doubly phosphorylated pS1123/pT1128 peptide”, the fold change entry in the assay with B56α [4] (sites S1123,T1128) is listed as “stronger”.

With “BRCA2 (from UniProt P51587) pS1106 peptide”, the “binding against the reference” value with B56α [4] (sites S1106) is listed as “weaker”. On to “BRCA2 (from UniProt P51587) pT1128 peptide (printed once as S1128)”, for which the fold change result with B56α [4] (sites T1128) is on record as “stronger”. `O=C(c1cc(Cc2n[nH]c(=O)c3ccccc23)ccc1F)N1CCN(C(=O)C2CC2)CC1` [Olaparib]: the Olaparib sensitivity result in the assay on U2OS Flp-In T-REx cells [5] (setting [7]) is recorded as “hypersensitivity”; in the assay on U2OS Flp-In T-REx cells [5] (setting [8]), “hypersensitivity”; with U2OS Flp-In T-REx cells [5] (cells expressing BRCA2 S1106R, T1116P or T1128I compared to BRCA2 WT), “mild sensitivity”. For the molecule “WKAEITEASTALEESGSQFE [BRCA2^1108-1126 2A, synthetic BRCA2 peptide 1108-1126 with L1114A-I1117A]”, at B56α [6], the KD entry is given as “No binding”.

B1: BRCA2 1105-1129 peptide (peptide)
peptide: PSQKAEITELSTILEESGSQFEFTQW
notes: human BRCA2, residues 1105-1129; tryptophan at the C-terminus, outside the stated BRCA2 limits; also called BRCA2^1105-1129 WT; source: synthetic peptide (Peptide 2.0 Inc.)
On to B1, for which, in the assay with His-tagged B56α, the dissociation constant Kd is 7.76 µM and the “stoichiometry N” value was determined as 0.99.

B2: BRCA2 1105-1129 T1128I peptide (peptide)
peptide: PSQKAEITELSTILEESGSQFEFIQW
notes: human BRCA2, residues 1105-1129 with the missense variant T1128I reported in individuals (ClinVar); tryptophan at the C-terminus, outside the stated BRCA2 limits; also called c.3383 C > T; source: synthetic peptide (Peptide 2.0 Inc.)
In the case of B2, in the assay with His-tagged B56α, the affinity, expressed as Kd, was 7.43 µM and the “stoichiometry N” value stood at 1.01.

B3: BRCA2 1105-1129 S1106R peptide (peptide)
peptide: PRQKAEITELSTILEESGSQFEFTQW
notes: human BRCA2, residues 1105-1129 with the missense variant S1106R reported in individuals (ClinVar); tryptophan at the C-terminus, outside the stated BRCA2 limits; also called c.3318 C > G; source: synthetic peptide (Peptide 2.0 Inc.)
With B3, in the assay with His-tagged B56α, the affinity, expressed as Kd, was 2.93 µM and the “stoichiometry N” value is 0.95.

B4: BRCA2 1105-1129 T1116P peptide (peptide)
peptide: PSQKAEITELSPILEESGSQFEFTQW
notes: human BRCA2, residues 1105-1129 with the missense variant T1116P reported in individuals (ClinVar); tryptophan at the C-terminus, outside the stated BRCA2 limits; also called c.3346 A > C; source: synthetic peptide (Peptide 2.0 Inc.)
Regarding B4, in the assay with His-tagged B56α, the Kd was determined as 6.92 µM and the “stoichiometry N” value is 0.85.

B5: BRCA2 1113-1129 pS1123 peptide (peptide)
peptide: WELSTILEESG[pS]QFEFTQ
notes: tryptophan at the N-terminus, outside the stated BRCA2 limits; human BRCA2, residues 1113-1129, S1123 phosphorylated; source: synthetic peptide (Peptide 2.0 Inc.)
For the molecule B5, in the assay with His-tagged B56α, the affinity, expressed as Kd, was 0.77 µM and the “stoichiometry N” value turned out to be 0.92.

B6: BRCA2 1113-1129 pT1128 peptide (peptide)
peptide: WELSTILEESGSQFEF[pT]Q
notes: tryptophan at the N-terminus, outside the stated BRCA2 limits; human BRCA2, residues 1113-1129, T1128 phosphorylated; source: synthetic peptide (Peptide 2.0 Inc.)
For the molecule B6, in the assay with His-tagged B56α, the affinity, expressed as Kd, was 1.38 µM and the “stoichiometry N” value came out at 0.94.

B7: BRCA2 1113-1129 peptide (peptide)
peptide: WELSTILEESGSQFEFTQ
notes: tryptophan at the N-terminus, outside the stated BRCA2 limits; human BRCA2, residues 1113-1129; source: synthetic peptide (Peptide 2.0 Inc.)
B7: in the assay with His-tagged B56α, the Kd is 3.82 µM and the “stoichiometry N” value stood at 1.01.

B8: BRCA2 1105-1129 3DQ peptide (peptide)
peptide: PDQKAEITELSTILEESGDQFEFDQW
notes: human BRCA2, residues 1105-1129 with the three SQ/TQ sites changed to DQ (phosphomimetic); tryptophan at the C-terminus, outside the stated BRCA2 limits; source: synthetic peptide (Peptide 2.0 Inc.)
As for B8, in the assay with His-tagged B56α, the Kd came to 3.75 µM and the “stoichiometry N” value is 0.86.

B9: BRCA2 1108-1126 peptide (peptide)
peptide: WKAEITELSTILEESGSQFE
notes: tryptophan at the N-terminus, outside the stated BRCA2 limits; human BRCA2, residues 1108-1126 with the LxxIxE motif; The added W probably serves the A280 concentration measurement; also called BRCA2^1108-1126 WT; source: synthetic peptide (Peptide 2.0 Inc.)
Regarding B9, in the assay with His-tagged B56α, binding was put at a Kd of 5.17 µM and the “stoichiometry N” value amounted to 1.02.

B10: BRCA2 1113-1129 pS1123, pT1128 peptide (peptide)
peptide: WELSTILEESG[pS]QFEF[pT]Q
notes: tryptophan at the N-terminus, outside the stated BRCA2 limits; human BRCA2, residues 1113-1129, S1123 and T1128 phosphorylated; also called double phosphorylated peptide; source: synthetic peptide (Peptide 2.0 Inc.)
On to B10, for which, in the assay with His-tagged B56α, the dissociation constant (Kd) was determined as 0.48 µM and the “stoichiometry N” value turned out to be 0.91.
